Laboratory results as given in US20210155689A1 (SHANGHAI PHARMAEXPLORER, published 2021).

T1: human LAG-3 protein with hFc tag (hLAG-3-hFc protein) (human, UniProt P18627 23-450)
T1 construct: also called immunogen 1; LAG-3 extracellular domain protein; not shown: human IgG Fc fragment (hFc) of the pCpC vector
T1 sequence: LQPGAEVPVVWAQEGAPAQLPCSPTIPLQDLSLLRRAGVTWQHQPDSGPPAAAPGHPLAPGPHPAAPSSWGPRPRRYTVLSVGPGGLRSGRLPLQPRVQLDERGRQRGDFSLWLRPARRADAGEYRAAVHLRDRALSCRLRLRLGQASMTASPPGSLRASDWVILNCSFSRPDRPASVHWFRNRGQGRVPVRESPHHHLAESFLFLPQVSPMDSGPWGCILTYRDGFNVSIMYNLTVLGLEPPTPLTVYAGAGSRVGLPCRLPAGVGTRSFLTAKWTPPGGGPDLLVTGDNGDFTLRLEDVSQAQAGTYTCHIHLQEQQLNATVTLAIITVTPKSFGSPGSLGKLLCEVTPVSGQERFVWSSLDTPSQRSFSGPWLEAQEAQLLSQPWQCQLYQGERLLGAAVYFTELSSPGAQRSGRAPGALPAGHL

T2: hFc tagged monkey LAG-3 protein (cLAG-3-hFc protein) (monkey; human)
T2 construct: Made in HEK293 cells; also called monkey LAG-3 extracellular domain protein; not shown: human IgG Fc fragment (hFc) of the pCpC vector
T2 chain: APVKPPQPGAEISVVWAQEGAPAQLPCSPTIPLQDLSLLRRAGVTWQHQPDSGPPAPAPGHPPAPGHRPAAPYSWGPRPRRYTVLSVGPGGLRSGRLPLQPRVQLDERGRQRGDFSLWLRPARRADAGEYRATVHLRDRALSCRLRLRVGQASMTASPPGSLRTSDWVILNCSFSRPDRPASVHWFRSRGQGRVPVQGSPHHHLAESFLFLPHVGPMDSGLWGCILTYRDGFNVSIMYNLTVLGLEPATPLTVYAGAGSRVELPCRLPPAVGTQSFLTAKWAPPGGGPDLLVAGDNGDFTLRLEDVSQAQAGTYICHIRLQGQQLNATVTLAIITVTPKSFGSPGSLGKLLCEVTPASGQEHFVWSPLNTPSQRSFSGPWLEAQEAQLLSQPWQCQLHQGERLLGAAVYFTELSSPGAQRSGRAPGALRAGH

T3: human LAG-3 on cells (HEK293-hLAG-3 stable cell line) (human, UniProt P18627 23-525)
T3 sequence: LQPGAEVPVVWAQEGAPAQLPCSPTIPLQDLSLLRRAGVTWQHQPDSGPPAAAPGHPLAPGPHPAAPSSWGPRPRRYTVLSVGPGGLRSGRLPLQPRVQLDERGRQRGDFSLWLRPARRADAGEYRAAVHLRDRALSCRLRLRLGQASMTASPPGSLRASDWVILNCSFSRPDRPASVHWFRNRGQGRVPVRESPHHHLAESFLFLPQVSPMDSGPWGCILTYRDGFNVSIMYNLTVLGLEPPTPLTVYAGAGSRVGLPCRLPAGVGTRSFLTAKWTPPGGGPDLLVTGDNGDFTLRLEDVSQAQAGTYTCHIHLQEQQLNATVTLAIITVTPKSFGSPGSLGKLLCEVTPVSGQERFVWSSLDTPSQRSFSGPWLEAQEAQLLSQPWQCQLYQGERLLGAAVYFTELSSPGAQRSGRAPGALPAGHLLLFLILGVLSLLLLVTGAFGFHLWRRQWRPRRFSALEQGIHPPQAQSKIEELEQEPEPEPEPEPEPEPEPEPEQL

B1: 405B8H3 (mouse antibody purified from hybridoma) (antibody, V domains shown)
VH: QVQLQQSGAELVRPGASVTLSCKASGYTFTDYEMHWVKQTPVHGLEWIGATDPETGNSAYNQKFKGKAIMTADKSSSTAYMELRSLTSEDSAVYYCISTGWNDWGQGTSLTVSS
VL: DIKMTQSPSSMYASLGERVTITCKASQDINSYLSWFQQKPGKSPKTLIYRADRLLDGVPSRFSGSGSGQDYSLTISSLEYGDMGIYYCLQYDEFPYTFGGGTKLEIK
notes: also called mAb103-405B8H3; 405B81-13
B2: 105F1E10 (LAG-3 mouse-human chimeric antibody) (antibody, V domains shown)
VH: EVQLQQSGPELVKPGASVKMSCRASGYTFTDFKMHWMKQSHGKSLEWIGYIAPNNGGTAYNQKFRGKATLTVNESSNTAYMELRSLTSEDSAVYYCVDWDDVDYWGQGTTLTVSS
VL: DIKMTQSPSSMYASLGERVTITCKASQDINSYLSWFQQKSGKSPKTLIYRANRLVDGVPSRFSGSGSGQDYSLTISSLEYEDMGIYYCLQYVEFPLTFGAGTKLELK
B3: 105F1E10 (mouse antibody purified from hybridoma) (antibody, V domains shown)
VH: EVQLQQSGPELVKPGASVKMSCRASGYTFTDFKMHWMKQSHGKSLEWIGYIAPNNGGTAYNQKFRGKATLTVNESSNTAYMELRSLTSEDSAVYYCVDWDDVDYWGQGTTLTVSS
VL: DIKMTQSPSSMYASLGERVTITCKASQDINSYLSWFQQKSGKSPKTLIYRANRLVDGVPSRFSGSGSGQDYSLTISSLEYEDMGIYYCLQYVEFPLTFGAGTKLELK
notes: also called mAb009-105F1E10
B4: 405B8H3 (LAG-3 mouse-human chimeric antibody) (antibody, V domains shown)
VH: QVQLQQSGAELVRPGASVTLSCKASGYTFTDYEMHWVKQTPVHGLEWIGATDPETGNSAYNQKFKGKAIMTADKSSSTAYMELRSLTSEDSAVYYCISTGWNDWGQGTSLTVSS
VL: DIKMTQSPSSMYASLGERVTITCKASQDINSYLSWFQQKPGKSPKTLIYRADRLLDGVPSRFSGSGSGQDYSLTISSLEYGDMGIYYCLQYDEFPYTFGGGTKLEIK
notes: also called mouse-human chimeric antibody 405B8H3
B5: 105F1E10 mouse-human chimeric antibody (antibody, V domains shown)
VH: EVQLQQSGPELVKPGASVKMSCRASGYTFTDFKMHWMKQSHGKSLEWIGYIAPNNGGTAYNQKFRGKATLTVNESSNTAYMELRSLTSEDSAVYYCVDWDDVDYWGQGTTLTVSS
VL: DIKMTQSPSSMYASLGERVTITCKASQDINSYLSWFQQKSGKSPKTLIYRANRLVDGVPSRFSGSGSGQDYSLTISSLEYEDMGIYYCLQYVEFPLTFGAGTKLELK
notes: also called mAb009-105F1E10
B6: 409D4E10 (mouse antibody purified from hybridoma) (antibody, V domains shown)
VH: QVQLQQSGAELVRPGASVTLSCKASGNTFTDYEMHWVKQTPVHGLEWIGATDPETDNTAYNQKFKGKAILTTDKSSSTAYMELRSLTSEDSAVYYCITSGWNDWGQGTSLTVSS
VL: DIKMTQSPSSMYASLGERVTITCKASQDINSYLSWFQQKPGKSPKTLIYRANRLLDGVPSRFSGSGSGQDYSLTISSLEYEDMGIYYCLQYNEFPYTFGGGTKLEIK
notes: also called mAb112-409D4E10
B7: 409D4E10 (LAG-3 mouse-human chimeric antibody) (antibody, V domains shown)
VH: QVQLQQSGAELVRPGASVTLSCKASGNTFTDYEMHWVKQTPVHGLEWIGATDPETDNTAYNQKFKGKAILTTDKSSSTAYMELRSLTSEDSAVYYCITSGWNDWGQGTSLTVSS
VL: DIKMTQSPSSMYASLGERVTITCKASQDINSYLSWFQQKPGKSPKTLIYRANRLLDGVPSRFSGSGSGQDYSLTISSLEYEDMGIYYCLQYNEFPYTFGGGTKLEIK
B8: 409B11E12 (mouse antibody purified from hybridoma) (antibody, V domains shown)
VH: QVQLQQSGAELVRPGASVTLSCKASGYTFTDYEMHWVKQTTVHGLEWIGATDPETSYSAYNQKFKGKAILTADKSSSTAYMELRSLTSEDSAVYYCIATGWNDWGQGTSLTVSS
VL: DLKMTQSPSSMYASLGERVTITCKASQDINSYLSWFQQKPGKSPKTLIYRANRLLDGVPSRFSGSGSGQDYSLTISSLEYEDMGIYYCLQYDEFPYTFGGGTKLEIK
notes: also called mAb104-409B11E12
B9: 409B11E12 (LAG-3 mouse-human chimeric antibody) (antibody, V domains shown)
VH: QVQLQQSGAELVRPGASVTLSCKASGYTFTDYEMHWVKQTTVHGLEWIGATDPETSYSAYNQKFKGKAILTADKSSSTAYMELRSLTSEDSAVYYCIATGWNDWGQGTSLTVSS
VL: DLKMTQSPSSMYASLGERVTITCKASQDINSYLSWFQQKPGKSPKTLIYRANRLLDGVPSRFSGSGSGQDYSLTISSLEYEDMGIYYCLQYDEFPYTFGGGTKLEIK
B10: 556F6B8 mouse-human chimeric antibody (antibody, V domains shown)
VH: RVQLKQSGPGLVQPSQSLSITCTVSGFSLIKYGVHWVRQSPGEGLEWLGVIWRGGITDYNAAFMSRLSITKDNSKSQVFFKMNSLQADDTAIYYCAKWDGPLAMDYWGQGTSVTVSS
VL: DIVMTQSHKFLSTSVGDRVSITCKASQDVGTTVAWYQQKPGQSPKLLIYWASTRHTGVPDRFTGSGSGTDFTLTISNVQSEDLADYFCQQYSSYPYTFGGGTKLEIK
notes: also called mAb123-556F6B8; 556F8B8
B11: 556F6B8 (LAG-3 mouse-human chimeric antibody) (antibody, V domains shown)
VH: RVQLKQSGPGLVQPSQSLSITCTVSGFSLIKYGVHWVRQSPGEGLEWLGVIWRGGITDYNAAFMSRLSITKDNSKSQVFFKMNSLQADDTAIYYCAKWDGPLAMDYWGQGTSVTVSS
VL: DIVMTQSHKFLSTSVGDRVSITCKASQDVGTTVAWYQQKPGQSPKLLIYWASTRHTGVPDRFTGSGSGTDFTLTISNVQSEDLADYFCQQYSSYPYTFGGGTKLEIK
notes: also called 556F8B8
B12: 556F6B8 (mouse antibody purified from hybridoma) (antibody, V domains shown)
VH: RVQLKQSGPGLVQPSQSLSITCTVSGFSLIKYGVHWVRQSPGEGLEWLGVIWRGGITDYNAAFMSRLSITKDNSKSQVFFKMNSLQADDTAIYYCAKWDGPLAMDYWGQGTSVTVSS
VL: DIVMTQSHKFLSTSVGDRVSITCKASQDVGTTVAWYQQKPGQSPKLLIYWASTRHTGVPDRFTGSGSGTDFTLTISNVQSEDLADYFCQQYSSYPYTFGGGTKLEIK
notes: also called mAb123-556F6B8

Assays:
[1] = molecular target: T1, human LAG-3 protein with hFc tag …; experiment: FACS, blocks LAG-3-hFc binding to MHC II on Raji; 22.222 nM
Method: The FACS reaction plate incubating the Raji cells was centrifuged to discard the supernatant. The above mixture was added as 100 μl per well to Raji cells and incubated on ice for 1-2 hours. The plate was washed twice with blocking solution (PBS, 2% fetal bovine serum) by centrifugation, added with 100 microliters of fluorescent (Alexa 488)-labeled secondary antibodies per well, and incubated on ice for 1.0 hours. The plate was washed 2-3 times by centrifugation with blocking solution (PBS, 2% fetal bovine serum), added with 100 microliters of PBS per well to suspend cells, and detected using FACS (FACS Calibur, BD) and the results were analyzed. Wherein, the IgG control was murine IgG, and the data in the table is the inhibition rate (%).

[2] = molecular target: T2, hFc tagged monkey LAG-3 protein …; experiment: ELISA, cLAG-3-hFc coated; 66.6670 nM
Method: The plate was sealed with plastic film and incubated overnight at 4° C. The plate was washed 2 times with the plate washing solution (PBS+0.01% Tween20) on the next day, and added with the blocking solution (PBS+0.01% Tween20+1% BSA) and blocked at room temperature for 1-2 hours. The blocking solution was poured out, and the plate was added with 50-100 μl of the antibody sample to be tested to each well, incubated at 37° C. for 1-2 hours, and washed 2-3 times with a plate washing solution (PBS+0.01% Tween20). HRP (horseradish peroxidase) labeled secondary antibody was added, and the plate was incubated at 37° C. for 1-2 hours, and washed 2-3 times with a plate washing solution (PBS+0.01% Tween20). 100 μl of TMB substrate was added to each well. After incubated at room temperature for 15-30 minutes, the plate was added with 100 μl of stop solution (1.0N HCl) to each well.

[3] = molecular target: T3, human LAG-3 on cells (HEK293-hLAG-3 …); experiment: FACS, HEK293-hLAG-3, antibody 40.000 nM
From the text: The pIRES plasmid with the monkey-derived full-length gene was transfected into the HEK293 cell line to construct a HEK293 stable cell line containing monkey LAG-3 (herein referred to as HEK293-cLAG-3 stable cell line). The HEK293-hLAG-3 stable cell line and HEK293-cLAG-3 stable cell line were expanded in a T-75 cell culture flask to a 90% confluence. The medium was aspirated, and the cells were washed with HBSS (Hanks' Balanced Salt Solution) 1-2 times, then treated with a enzyme-free cell dissociation fluid (Versene solution: Life technology) and the cells were collected. The cells were washed with HBSS buffer for 1-2 times. After counted, the cells were diluted with HBSS to 1-2×10⁶ cells per ml, added with 1% goat serum blocking solution, incubated on ice for 20-30 minutes, and then washed with HBSS for 2 times by centrifugation. The collected cells were suspended in the FACS buffer (HBSS+1% BSA) to 2×10⁶ cells/ml, added as 100 microliters per well to a 96-well FACS reaction plate, added with 100 microliters per well of the antibody sample to be tested, incubated on ice for 1-2 hours. The plate was washed twice with the FACS buffer by centrifugation, added with 100 microliters of fluorescent (Alexa 488)-labeled secondary antibodies per well, and incubated on ice for 0.5-1.0 hours. The plate was washed 2-3 times with FACS buffer by centrifugation, added with 100 μl fixative solution (4% Paraformaldehyde) per well to suspend the cells. 5-10 minutes later, it was washed 1-2 times with FACS buffer by centrifugation. The cells were suspended with 100 microliters of FACS buffer, FACS (FACSCalibur, BD) was used for detection and the results were analyzed.

| Binder | Inhibition rate (%) [1] [%] | OD450 [2] [OD450] | other results |
| --- | --- | --- | --- |
| B1 | 93.6 |  |  |
| B2 |  | 3.59 |  |
| B3 | 93.6 |  |  |
| B4 |  | 3.46 |  |
| B5 |  |  | Mean fluorescence intensity [3]: 146 |
| B6 | 95.8 |  |  |
| B7 |  | 3.77 |  |
| B8 | 95.3 |  |  |
| B9 |  | 3.44 |  |
| B10 |  |  | Mean fluorescence intensity [3]: 123 |
| B11 |  | 3.72 |  |
| B12 | 95.6 |  |  |
